Experimental data as given in the supplement of paper PMC11908140.

B1: library; numbered along this chain (parent)
chain: MRKPRAAVGSGHRKQAASQEGRQKHAKNNSQAKPSACDGLARQPEEVVLQASVSSYHLFRDVAEVTAFRGSLLSWYDQEKRDLPWRRRAEDEMDLDRRAYAVWVSEVMLQQTQVATVINYYTGWMQKWPTLQDLASASLEEVNQLWAGLGYYSRGRRLQEGARKVVEELGGHMPRTAETLQQLLPGVGRYTAGAIASIAFGQATGVVDGNVARVLCRVRAIGADPSSTLVSQQLWGLAQQLVDPARPGDFNQAAMELGATVCTPQRPLCSQCPVESLCRARQRVEQEQLLASGSLSGSPDVEECAPNTGQCHLCLPPSEPWDQTLGVVNFPRKASRKPPREESSATCVLEQPGALGAQILLVQRPNSGLLAGLWEFPSVTWEPSEQLQRKALLQELQRWAGPLPATHLRHLGEVVHTFSHIKLTYQVYGLALEGQTPVTTVPPGARWLTQEEFHTAAVSTAMKKVFRVYQGQQPGTCMGSKRSQVSSPCSRKKPRMGQQVLDNFFRSHISTDAHSLNSAAQ

Variants of: B1
Test: 8OG:A repair function score (normalized; synonymous = 0, nonsense = -1) (normalized log-likelihood score); higher = more repair activity (WT-like)
Settings: with 8OG:A DNA repair reporter (GFP) in HEK-293 MUTYH KO cells
In short: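 Lentiviral MUTYH cDNA NNN codon-scan libraries in HEK-293 MUTYH knockout cells (10 pg/ml doxycycline) were co-transfected with an 8OG:A GFP repair reporter plus mCherry. At 72 h, viable mCherry+ cells were sorted into GFP+ (repair) and GFP− bins, three replicates per tile, then tile amplicons were sequenced. Per-tile Rosace fitness scores became a normalized repair function score anchored on synonymous and nonsense distributions. Synonymous medians were set to 0 and nonsense to -1; variants under 300 counts per million at the start were removed.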

| Variant | 8OG:A repair function score |
| --- | --- |
| A115L | -0.0647 |
| S136H | -0.136 |
| F453L | -0.306 |
| T308L | -0.0193 |
| P185F | -0.285 |
| Y120E | -0.482 |
| S518Q | -0.0542 |
| S518G | 0.0246 |
| F466H | -0.355 |
| F466Q | -0.488 |
| P443F | 0.179 |
| Y56M | 0.00205 |
| Y56C | -0.0129 |
| T66L | -0.00253 |
| C272A | -1.16 |
| V207N | -0.883 |
| V207E | -1.03 |
| L257K | -1.22 |
| L257S | -0.983 |
| S227E | -0.452 |
| L325G | -0.16 |
| L169T | -0.186 |
| L169E | -0.261 |
| L169F | -0.0235 |

| Variant | 8OG:A repair function score |
| --- | --- |
| A238T | -0.413 |
| A461F | -0.265 |
| A461P | -0.267 |
| P331L | -0.609 |
| P331S | -0.197 |
| P331E | -0.568 |
| D300Y | -0.121 |
| A254H | -0.175 |
| S294A | -0.012 |
| S294V | -0.0111 |
| S294G | -0.00188 |
| T260C | -0.129 |
| T436E | -0.16 |
| E64C | -0.0897 |
| E64G | -0.0592 |
| T476M | -0.0533 |
| L183T | -0.0372 |
| L183D | -0.21 |
| V114N | -0.367 |
| Q358W | -0.308 |
| A223W | -0.73 |
| L158A | -0.675 |
| V214S | -0.707 |
| V214G | -0.9 |

| Variant | 8OG:A repair function score |
| --- | --- |
| K481L | -0.0084 |
| H312F | -0.000263 |
| P338T | -0.0578 |
| H454D | -0.376 |
| V327I | -0.257 |
| V327S | -0.274 |
| V327D | -0.777 |
| L40I | -0.0464 |
| Q232L | -0.326 |
| Q394S | -0.0073 |
| K3P | 0.0268 |
| K3A | 0.108 |
| L315D | -0.206 |
| A147S | 0.0618 |
| G475A | 0.000317 |
| L184Q | -0.899 |
| W128Y | -0.0875 |
| G293A | -0.0268 |
| R60M | 0.00468 |
| R60C | -0.081 |
| R60S | 0.00106 |
| M93W | -0.00669 |
| N503G | 0.00621 |
| E160M | 0.0471 |

| Variant | 8OG:A repair function score |
| --- | --- |
| E160T | -0.0143 |
| A220M | -0.551 |
| K492G | -0.00555 |
| L432K | -0.608 |
| H416T | 0.0616 |
| Q43A | 0.0603 |
| G188Q | -0.909 |
| V107L | -0.266 |
| Q240A | -0.971 |
| Q240K | -0.932 |
| Q240M | -0.867 |
| T228M | 0.0193 |
| S490Q | 0.0011 |
| E140S | -0.0988 |
| Q286I | -0.0426 |
| L83S | -0.387 |
| L83K | -0.987 |
| V206K | -1.01 |
| V206R | -1.01 |
| G205W | -0.894 |
| G205L | -1.03 |
| Q484F | -0.005 |
| Q323M | -0.0348 |
| F250P | -1.03 |

| Variant | 8OG:A repair function score |
| --- | --- |
| E302R | -0.254 |
| P488K | 0.0286 |
| P488D | -0.00371 |
| V414A | -0.157 |
| V441L | -0.0169 |
| Q233H | 0.461 |
| Q144W | -0.282 |
| S296T | -0.0451 |
| S71I | -0.125 |
| S71N | -0.00566 |
| P247G | -0.799 |
| P247W | -1.03 |
| L237N | -0.583 |
| G434Q | -0.0366 |
| S197I | -0.959 |
| K493Y | 0.00504 |
| K493Q | -0.107 |
| L241K | -1.01 |
| E168D | -0.0557 |
| Q113E | -0.529 |
| Q113I | -0.279 |
| L72F | -1.08 |
| L72V | -0.446 |
| L72D | -1.11 |

| Variant | 8OG:A repair function score |
| --- | --- |
| I198V | -0.254 |
| R340K | -0.0186 |
| P299A | -0.0132 |
| P339K | -0.0247 |
| P339S | -0.0594 |
| P44R | -0.0646 |
| P267I | -0.711 |
| Q111Y | -1.17 |
| Q111I | -1.18 |
| V362D | -0.671 |
| R87A | -0.0289 |
| S52P | -0.0118 |
| R217S | -1.03 |
| R217H | -0.835 |
| V485F | 0.0143 |
| V166P | -0.858 |
| V166C | 0.0203 |
| L448W | -0.658 |
| V102Q | -0.275 |
| V102R | -1.41 |
| R98I | -0.145 |
| R98L | -0.107 |
| E433W | -0.393 |
| G326V | -0.514 |

| Variant | 8OG:A repair function score |
| --- | --- |
| D82T | -0.0186 |
| D82Y | -0.0661 |
| A253S | -0.559 |
| A253W | -0.975 |
| D208W | -1.02 |
| S298Q | -0.0174 |
| S298V | 0.00493 |
| T424Q | -0.355 |
| T424N | -0.156 |
| E275Y | -0.0195 |
| S344F | -0.0252 |
| S138D | -0.192 |
| P316D | -0.0567 |
| P316H | -0.123 |
| P316C | -0.0546 |
| I195W | -0.908 |
| G497M | -0.0577 |
| S486K | -0.0131 |
| V165Y | -1.15 |
| Q498E | 0.0145 |
| L109E | -1.07 |
| Y425N | -0.608 |
| Y425E | -0.544 |
